Experimental data taken from patent US20240239881A1 (Innovent, published 2024).

Legend:
Rhesus ANG2 = molecular target: T1, Rhesus ANG2 (rhesus, UniProt F6QXG0 19-496); assay: SPR, Biacore T200, antibody captured on Protein G chip, experiment 3
T1 sequence: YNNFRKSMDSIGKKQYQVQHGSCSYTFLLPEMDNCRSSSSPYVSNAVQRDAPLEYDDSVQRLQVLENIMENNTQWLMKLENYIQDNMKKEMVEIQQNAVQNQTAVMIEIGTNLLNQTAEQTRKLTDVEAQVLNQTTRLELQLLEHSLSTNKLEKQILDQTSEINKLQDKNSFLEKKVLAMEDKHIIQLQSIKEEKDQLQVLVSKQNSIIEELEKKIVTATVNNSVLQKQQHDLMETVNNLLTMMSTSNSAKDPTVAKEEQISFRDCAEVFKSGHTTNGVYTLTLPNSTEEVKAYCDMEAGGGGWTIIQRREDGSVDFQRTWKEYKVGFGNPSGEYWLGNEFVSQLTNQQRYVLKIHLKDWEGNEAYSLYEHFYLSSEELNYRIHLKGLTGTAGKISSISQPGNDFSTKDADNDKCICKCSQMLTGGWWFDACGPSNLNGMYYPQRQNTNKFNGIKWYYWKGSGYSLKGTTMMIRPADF
Protocol: (§1) The antibody was diluted to 1 μg/mL and was captured onto channel 2 for 30 s, and channel 1 was the blank control channel. The gradient-diluted Human ANG2, Rhesus ANG2, Rabbit ANG2, Rat ANG2 and Mouse ANG2 were sequentially injected into channels 1 and 2 of the chip, from low to high concentrations (0-32 nM), at a flow rate of 30 μL/min, with one concentration per cycle, and with 180 s association time and 1200 s dissociation time at 25° C. Finally, the chip was regenerated using Glycine pH 1.5 at 30 μL/min for 30 s. The affinity assay was repeated three times.

Rabbit ANG2 = molecular target: T2, Rabbit ANG2 (rabbit, UniProt G1T9B3 19-496); assay: as above
T2 sequence: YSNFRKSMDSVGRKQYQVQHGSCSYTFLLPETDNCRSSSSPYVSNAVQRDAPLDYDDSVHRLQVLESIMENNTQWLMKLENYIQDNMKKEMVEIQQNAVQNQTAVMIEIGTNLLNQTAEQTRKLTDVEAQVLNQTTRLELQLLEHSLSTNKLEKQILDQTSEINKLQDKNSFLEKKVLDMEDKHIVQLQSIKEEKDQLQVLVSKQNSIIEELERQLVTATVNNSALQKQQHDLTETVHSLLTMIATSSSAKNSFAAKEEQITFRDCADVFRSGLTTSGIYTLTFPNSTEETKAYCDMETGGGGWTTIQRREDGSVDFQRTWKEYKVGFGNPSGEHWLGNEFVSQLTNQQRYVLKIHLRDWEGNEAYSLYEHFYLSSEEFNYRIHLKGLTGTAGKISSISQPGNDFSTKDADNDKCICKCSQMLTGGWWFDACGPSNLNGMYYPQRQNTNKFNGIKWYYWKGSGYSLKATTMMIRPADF
Protocol: as §1

human Ang2 = molecular target: T3, human Ang2 (human, UniProt O15123 19-496, limits assumed); assay: as above
T3 construct: also called hAng2; h Ang2
T3 sequence: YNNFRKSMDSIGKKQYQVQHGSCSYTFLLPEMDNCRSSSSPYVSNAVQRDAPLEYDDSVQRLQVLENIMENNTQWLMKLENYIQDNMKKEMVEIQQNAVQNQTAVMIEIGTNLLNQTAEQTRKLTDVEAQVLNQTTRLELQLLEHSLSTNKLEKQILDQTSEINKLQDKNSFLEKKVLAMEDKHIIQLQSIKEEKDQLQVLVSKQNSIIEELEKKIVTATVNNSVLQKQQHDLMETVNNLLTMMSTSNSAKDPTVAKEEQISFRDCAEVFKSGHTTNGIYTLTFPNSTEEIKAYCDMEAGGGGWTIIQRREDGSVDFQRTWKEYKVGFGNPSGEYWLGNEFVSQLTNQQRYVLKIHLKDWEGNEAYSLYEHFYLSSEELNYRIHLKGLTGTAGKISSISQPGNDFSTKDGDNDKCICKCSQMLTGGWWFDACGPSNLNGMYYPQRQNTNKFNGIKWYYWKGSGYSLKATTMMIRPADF
Protocol: as §1

[1] = molecular target: T4, recombinant biotinylated hAngiopoietin-2 protein (R&D, Cat. No.: BT623B/CF) (human, UniProt O15123 19-496, limits assumed, biotinylated (sites not given)); assay: blocking ELISA: antibody titrated against biotinylated hAng2 (300 ng/ml final); blocked binding to coated hTie2 protein; Avidin-HRP detection
T4 construct: Bought protein; also called Biotin Ang2; human biotin Ang2 protein
T4 sequence: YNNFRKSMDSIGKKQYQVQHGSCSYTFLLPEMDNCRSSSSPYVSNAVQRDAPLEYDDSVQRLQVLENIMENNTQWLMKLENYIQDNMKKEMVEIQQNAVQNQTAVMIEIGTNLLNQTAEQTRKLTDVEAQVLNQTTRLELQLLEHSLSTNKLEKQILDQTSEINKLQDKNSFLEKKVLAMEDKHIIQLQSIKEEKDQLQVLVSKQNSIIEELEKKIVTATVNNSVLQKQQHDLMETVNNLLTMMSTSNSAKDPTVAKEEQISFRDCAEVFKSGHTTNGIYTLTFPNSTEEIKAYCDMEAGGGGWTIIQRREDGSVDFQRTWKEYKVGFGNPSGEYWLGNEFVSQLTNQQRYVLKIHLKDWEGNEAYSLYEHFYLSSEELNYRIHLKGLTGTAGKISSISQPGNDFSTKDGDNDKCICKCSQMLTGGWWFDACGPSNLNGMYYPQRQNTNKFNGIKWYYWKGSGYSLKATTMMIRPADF
Protocol: The abilities of 81H10, 86E9, 107H7, hz81H10.4, Amhz81H10.4.30, Amhz81H10.4.49, and the control antibodies Nesvacumab and faricimab to block the binding of human Ang2 to hTie2 were determined by ELISA. Faricimab is a bispecific antibody drug undergoing a clinical trial and developed by Roche, which targets both angiopoietin-2 (Ang-2) and VEGF-A.
Then the plate was blocked using 5% BSA for 1 h. The biotinylated antigen, recombinant biotinylated hAngiopoietin-2 protein (R&D, Cat. No.: BT623B/CF), was diluted to 600 ng/ml, and was added into the microtiter plate at 50 μl/well. The antibodies (81H10, 86E9, 107H7, hz81H10.4, Amhz81H10.4.30 and Amhz81H10.4.49) prepared as described above were gradiently diluted with a total of 8 or 12 dilution points starting from the highest concentration, and then added to the microtiter plate at 50 μl/well, and incubated in PBS on ice for 30 min. Then, 50 ul of antigen solution was added to the microtiter plate, in which the final antigen concentration was 300 ng/ml. The plate containing the antigen-antibody mixture was incubated for 90 min. After three washes with PBS, the supernatant was discarded, and Avidin-HRP (Invitrogen) diluted at 1:10000 was added at 100 μl/well, then incubated at room temperature for 30 min. PBS was used to wash the plate six times. Then TMB chromogen solution (solarbio) was added at 100 ul/well to allow for chromogenic reaction for 1 min, then the reaction was terminated with the addition of stop solution (solarbio) at 100 ul/well.

- Kd (Rhesus ANG2): 0.13 nM
- koff (Rhesus ANG2): 4.03e-05 s⁻¹
- kon (Rhesus ANG2): 311000 M⁻¹ s⁻¹
- Kd (Rabbit ANG2): 0.446 nM
- koff (Rabbit ANG2): 0.000144 s⁻¹
- kon (Rabbit ANG2): 322000 M⁻¹ s⁻¹
- Kd (human Ang2): 0.0357 nM
- koff (human Ang2): 1.05e-05 s⁻¹
- kon (human Ang2): 293000 M⁻¹ s⁻¹
- IC50 [1]: 0.728 nM
B1: humanized antibody hz81H10.4 (antibody, human IgG1, kappa, V domains shown)
VH: EVQLVESGGGLVKPGGSLRLSCAASGFTFSNYWMNWVRQAPGKGLEWVAEIRLKSNNYATHYAESVKGRFTISRDVSKNTVYLQMNSLKTEDTAVYYCTDTAPFAYWGQGTLVTVSS
VL: DIQMTQSPSSLSASVGDRVTITCKASQDVGTDVAWYQQKPGKAPKLLIYWASTRHTGVPSRFSGSGSGTDFTLTISSLQPEDFATYYCQQYSSYPLTFGGGTKVEIKR
notes: also called IBI335
